Measurements as given in US20210332142A1 (Genentech, published 2021).

Experiments:
[1] = target: T1, recombinant human Tie2 extracellular domain (human, UniProt Q02763 23-748); assay: SPR multi-cycle kinetics, IgG captured, kinetic analysis
T1 construct: whole entry named; also called Recombinant human Tie2 ECD; hu Tie2
Protocol: (§1) Binding to 300 nM and 1500 nM recombinant Tie2 was analyzed at 37° C. using a Single Cycle Kinetics method with a contact time of 60 seconds, a dissociation time of 120 seconds and a flow rate of 50 μl/min. Between cycles, the surface was regenerated by a 30 second injection of 3M MgCl₂ at a flow rate of 30 μl/min. Values for antibody capture levels and analyte binding levels were obtained from the Report Point Table (Biacore Evaluation Software v3.0, GE Life Sciences). […] Table 16: Experiment A; Table 17: Experiment B.
(§2) Binding to recombinant human and cyno Tie2 was analyzed using a high performance multi-cycle kinetics format with a contact time of 60 seconds, a dissociation time of 60 seconds, a flow rate of 100 μl/minute and Tie2 concentrations of 5 μM, 2.5 μM, 1.25 μM, 625 nM, 313 nM and 156 nM. Tie2 concentrations of 5 μM, 2.5 μM and 1.25 μM were injected twice. Results were analyzed using Biacore T200 Evaluation Software v3.0 (GE Life Sciences). Results from all three surface densities were analyzed together using the 1:1 Binding model with multiple Rmax and the RI parameter set to zero.

omalizumab = target: T2, omalizumab; assay: phage ELISA
T2 construct: Used as irrelevant coated protein; also called irrelevant Fc-containing protein; not shown: the constant regions

[2] = target: T1, recombinant human Tie2 extracellular …; assay: SPR multi-cycle kinetics, IgG captured, kinetic analysis; human Tie2; kinetic analysis
Protocol: as §2

human Tie2ECD.flag = target: T3, human Tie2ECD.flag (human, UniProt Q02763 23-748); assay: Biacore, hIgG captured, 25C
T3 construct: also called hTie2.flag; not shown: C-terminal Flag tag
T3 sequence (Q02763 23-748 limits assumed): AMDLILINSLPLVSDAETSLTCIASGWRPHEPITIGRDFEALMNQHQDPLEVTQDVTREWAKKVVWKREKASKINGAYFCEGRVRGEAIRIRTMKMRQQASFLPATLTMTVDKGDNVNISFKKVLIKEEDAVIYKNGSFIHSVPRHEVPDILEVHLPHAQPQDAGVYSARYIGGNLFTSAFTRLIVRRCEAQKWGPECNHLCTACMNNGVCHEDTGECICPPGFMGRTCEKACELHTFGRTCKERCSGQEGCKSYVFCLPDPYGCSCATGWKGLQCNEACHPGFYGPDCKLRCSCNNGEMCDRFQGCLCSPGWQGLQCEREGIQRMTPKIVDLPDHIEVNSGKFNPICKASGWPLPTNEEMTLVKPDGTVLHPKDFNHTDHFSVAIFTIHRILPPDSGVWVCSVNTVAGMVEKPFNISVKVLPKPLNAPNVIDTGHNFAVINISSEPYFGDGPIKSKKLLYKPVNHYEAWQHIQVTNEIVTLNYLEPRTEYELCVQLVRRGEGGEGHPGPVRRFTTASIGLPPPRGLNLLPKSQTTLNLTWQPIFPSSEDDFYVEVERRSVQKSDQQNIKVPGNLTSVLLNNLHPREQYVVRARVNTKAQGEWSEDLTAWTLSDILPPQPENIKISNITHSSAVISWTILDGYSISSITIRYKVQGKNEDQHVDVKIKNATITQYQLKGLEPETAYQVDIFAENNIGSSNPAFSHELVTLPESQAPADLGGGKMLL
In short: (§3)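 Anti-Tie2 hIgGs captured on an anti-human Fc CM5 surface; human or rat Tie2ECD.flag binding monitored at 25 °C by multi-cycle kinetics, with 3 M MgCl₂ regeneration. Monovalent affinities from a 1:1 binding model fit.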

rat Tie2ECD.flag = target: T4, rat Tie2ECD.flag (rat, UniProt A0ABK0L6J5 19-740); assay: Biacore, hIgG captured, 25C
T4 construct: extracellular domain; also called rTie2.flag; not shown: C-terminal Flag tag
In short: as §3

[3] = target: T5, recombinant cyno Tie2 extracellular domain (cynomolgus monkey, UniProt Q02763 23-748 (human entry)); assay: SPR multi-cycle kinetics, IgG captured, kinetic analysis; cyno Tie2; kinetic analysis
T5 construct: also called Recombinant cyno Tie2 ECD; cy Tie2
T5 chain: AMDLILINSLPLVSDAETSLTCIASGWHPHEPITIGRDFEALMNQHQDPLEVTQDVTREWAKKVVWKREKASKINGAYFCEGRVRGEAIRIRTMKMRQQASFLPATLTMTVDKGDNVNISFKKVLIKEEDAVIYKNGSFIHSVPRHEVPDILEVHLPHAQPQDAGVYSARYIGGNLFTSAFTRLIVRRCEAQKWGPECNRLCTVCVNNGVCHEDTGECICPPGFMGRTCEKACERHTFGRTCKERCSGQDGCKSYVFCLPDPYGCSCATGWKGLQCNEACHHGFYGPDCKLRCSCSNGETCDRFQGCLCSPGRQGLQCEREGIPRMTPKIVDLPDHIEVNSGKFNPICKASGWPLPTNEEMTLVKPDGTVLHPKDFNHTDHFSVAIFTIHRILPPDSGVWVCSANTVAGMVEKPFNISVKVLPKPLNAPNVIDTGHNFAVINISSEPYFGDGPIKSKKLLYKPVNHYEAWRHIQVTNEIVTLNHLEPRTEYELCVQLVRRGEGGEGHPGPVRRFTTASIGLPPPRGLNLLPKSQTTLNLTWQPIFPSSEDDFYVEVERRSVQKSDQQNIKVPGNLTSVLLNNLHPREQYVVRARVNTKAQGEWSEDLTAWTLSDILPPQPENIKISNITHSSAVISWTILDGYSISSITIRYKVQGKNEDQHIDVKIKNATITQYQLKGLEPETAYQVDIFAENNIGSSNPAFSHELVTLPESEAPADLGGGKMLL
Protocol: as §2

[4] = target: T5, recombinant cyno Tie2 extracellular …; assay: SPR, IgG captured, 37C
Protocol: as §1, with “A human antibody capture chip was prepared using a Series S CM5 chip (GE Life Sciences), a human antibody capture kit (GE Life Sciences) and an amine coupling kit (GE Life Sciences). Antibodies diluted to 5 μg/ml in running buffer (10 mM HEPES, 150 mM NaCl, 0.05% Tween 20, 1 mM EDTA, pH 7.4) were non-covalently captured using a contact time of 20 seconds and a flow rate of 10 μl/minute. Binding” for “Binding”

mouse Tie2 ECD5 = target: T6, mouse Tie2 ECD5 (mouse, UniProt Q02858 23-442, limits assumed); assay: ELISA: mouse Tie2 ECD5 construct immobilized, serial dilutions of IgG, anti-huFc-HRP
T6 construct: domain: ECD5 (Ig1, Ig2, EGF and Ig3 domains); also called mECD5
Source text: Plates were washed and detected with anti-huFC-conjugated HRP secondary antibody using the methods above.

[5] = target: T1, recombinant human Tie2 extracellular …; assay: SPR, IgG captured, steady state analysis
Protocol: as §2

[6] = target: T5, recombinant cyno Tie2 extracellular …; assay: SPR, IgG captured, steady state analysis
Protocol: as §2

- koff [1]: 0.45 s⁻¹
- kon [1]: 180000 M⁻¹ s⁻¹
- binding result (omalizumab): no binding
- Kd [2]: 3 µM
- Kd (human Tie2ECD.flag): 1.2 µM
- Kd (rat Tie2ECD.flag): 1.6 µM
- Kd [3]: 3 µM
- Normalized Binding Signal, 300 nM [4]: 0.08
- binding result (mouse Tie2 ECD5): binds
- Kd [5]: 3 µM
- Kd [6]: 3 µM
B1: Tie2.1 (antibody, human IgG1, V domains shown)
VH: EVQLVESGGGLVQPGGSLRLSCAASGFTFSNTDISWVRQAPGKGLEWVGRISPSDGNTYYADSVKGRFTISADTSKNTAYLQMNSLRAEDTAVYYCARRTRWASWAMDYWGQGTLVTVSS
VL: DIQMTQSPSSLSASVGDRVTITCRASQDVSTAVAWYQQKPGKAPKLLIYSASFLYSGVPSRFSGSGSGTDFTLTISSLQPEDFATYYCQQSYTTPPTFGQGTKVEIKR
notes: human IgG1 in all later assays; also called Ab1; Tie2.1.M100c
